Earlier results on 1 sequence are cited in article PMC5057102.

For the data set, the target named is Amyloid beta oligomers (1-40/1-42, form not specified) (UniProt P05067). Put plainly: not stated (cited). The following applies: 5'-HS (thiol); 0.1 M phosphate buffer (Na2HPO4/NaH2PO4) pH 7.4; incubations at 37 C (Abeta 60 min, aptamer-Au-Th 3 h); 1% BSA block.
Amyloid beta oligomers (1-40/1-42, form not specified), sequence (P05067 672-711): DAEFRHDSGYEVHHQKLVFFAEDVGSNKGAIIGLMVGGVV

In the case of “GCCTGTGTTGGGGCGGGTGCG [Abeta oligomer aptamer (thiolated, on AuNP with thionine)]”, the Kd – broadly, the concentration at which binding is half-saturated – was 0.025 µM.
